From the array DNA melting data of Ke et al.

Experiment: melting temperature; melt of duplexes
Details: sodium 0.0675 M; strand 1 µM

With “CGACGTGCATGATGTGCTG+CAGCACATAGGGCACGTCG ((((((((...((((((((+))))))))...))))))))” as the substance, how does the Tm read?
Its Tm is 50.1 °C.

Which Tm does the source give for “CGACGTGCCACATGTGCTG+CAGCACATGCGGCACGTCG (((((((((.(((((((((+))))))))).)))))))))” here?
Its Tm is 60.2 °C.

For “CGACGTGCGTTATGTGCTG+CAGCACATCGAGCACGTCG ((((((((...((((((((+))))))))...))))))))”, which Tm is on record?
Its Tm is 52.2 °C.

Which Tm does the source give for “CGACGTGCAATATGTGCTG+CAGCACATACGGCACGTCG ((((((((..(((((((((+)))))))))..))))))))” here?
Its Tm is 49.4 °C.

With “CGACGTGCCGTATGTGCTG+CAGCACATGAGGCACGTCG (((((((((..((((((((+))))))))..)))))))))” as the substance, how does the Tm read?
Its Tm is 58.7 °C.

With “CGACGTGCAAAATGTGCTG+CAGCACATGCGGCACGTCG ((((((((...((((((((+))))))))...))))))))” as the substance, how does the Tm read?
Its Tm is 51.2 °C.

With “CGACGTGCCAAATGTGCTG+CAGCACATATCGCACGTCG ((((((((.(.((((((((+)))))))).).))))))))” as the substance, how does the Tm read?
Its Tm is 47.2 °C.

With “CGACGTGCAAAATGTGCTG+CAGCACATACCGCACGTCG ((((((((...((((((((+))))))))...))))))))” as the substance, how does the Tm read?
The Tm was 48.1 °C.

Which Tm does the source give for “CGACGTGCACTATGTGCTG+CAGCACATATTGCACGTCG (((((((((.(((((((((+))))))))).)))))))))” here?
The Tm was 51.5 °C.

With “CGACGTGCACTATGTGCTG+CAGCACATACAGCACGTCG ((((((((..(((((((((+)))))))))..))))))))” as the substance, how does the Tm read?
The Tm was 45.4 °C.

For “CGACGTGCGCTATGTGCTG+CAGCACATACCGCACGTCG (((((((((.(((((((((+))))))))).)))))))))”, which Tm is on record?
Its Tm is 54.8 °C.

With “CGACGTGCCGAATGTGCTG+CAGCACATCCCGCACGTCG ((((((((.(.((((((((+)))))))).).))))))))” as the substance, how does the Tm read?
The Tm was 49.6 °C.

With “CGACGTGCGTTATGTGCTG+CAGCACATCAGGCACGTCG ((((((((.(.((((((((+)))))))).).))))))))” as the substance, how does the Tm read?
Its Tm is 49.9 °C.

Which Tm does the source give for “CGACGTGCTCGATGTGCTG+CAGCACATGATGCACGTCG ((((((((...((((((((+))))))))...))))))))” here?
Its Tm is 51.9 °C.

With “CGACGTGCACCATGTGCTG+CAGCACATTCGGCACGTCG ((((((((...((((((((+))))))))...))))))))” as the substance, how does the Tm read?
Its Tm is 42.6 °C.

With “CGACGTGCACCATGTGCTG+CAGCACATCAAGCACGTCG ((((((((...((((((((+))))))))...))))))))” as the substance, how does the Tm read?
The Tm was 42.8 °C.

Which Tm does the source give for “CGACGTGCACGATGTGCTG+CAGCACATGTTGCACGTCG (((((((((..((((((((+))))))))..)))))))))” here?
The Tm was 49.9 °C.

For “CGACGTGCGTAATGTGCTG+CAGCACATAACGCACGTCG ((((((((((.((((((((+)))))))).))))))))))”, which Tm is on record?
The Tm was 59.1 °C.

For “CGACGTGCGCCATGTGCTG+CAGCACATGGGGCACGTCG ((((((((.((((((((((+)))))))))).))))))))”, which Tm is on record?
The Tm was 63.2 °C.

For “CGACGTGCCCAATGTGCTG+CAGCACATAATGCACGTCG ((((((((...((((((((+))))))))...))))))))”, which Tm is on record?
Its Tm is 47.6 °C.

With “CGACGTGCCAGATGTGCTG+CAGCACATCTTGCACGTCG ((((((((.((((((((((+)))))))))).))))))))” as the substance, how does the Tm read?
The Tm was 57 °C.

For “CGACGTGCCCTATGTGCTG+CAGCACATAGGGCACGTCG (((((((((((((((((((+)))))))))))))))))))”, which Tm is on record?
The Tm was 64.4 °C.

For “CGACGTGCCCTATGTGCTG+CAGCACATAGAGCACGTCG ((((((((.((((((((((+)))))))))).))))))))”, which Tm is on record?
Its Tm is 55.6 °C.

Which Tm does the source give for “CGACGTGCCCGATGTGCTG+CAGCACATACGGCACGTCG (((((((((..((((((((+))))))))..)))))))))” here?
The Tm was 53.5 °C.

Which Tm does the source give for “CGACGTGCGGAATGTGCTG+CAGCACATATGGCACGTCG ((((((((...((((((((+))))))))...))))))))” here?
Its Tm is 50.8 °C.

For “CGACGTGCTTTATGTGCTG+CAGCACATTGAGCACGTCG (((((((((..((((((((+))))))))..)))))))))”, which Tm is on record?
Its Tm is 52 °C.

For “CGACGTGCCTTATGTGCTG+CAGCACATCGCGCACGTCG ((((((((...((((((((+))))))))...))))))))”, which Tm is on record?
The Tm was 47.2 °C.

With “CGACGTGCTTGATGTGCTG+CAGCACATGCAGCACGTCG (((((((((..((((((((+))))))))..)))))))))” as the substance, how does the Tm read?
Its Tm is 51.8 °C.

Which Tm does the source give for “CGACGTGCTTTATGTGCTG+CAGCACATGAAGCACGTCG ((((((((((.((((((((+)))))))).))))))))))” here?
The Tm was 57.3 °C.

Which Tm does the source give for “CGACGTGCGTGATGTGCTG+CAGCACATCCGGCACGTCG ((((((((..(((((((((+)))))))))..))))))))” here?
The Tm was 55.7 °C.

Which Tm does the source give for “CGACGTGCGCTATGTGCTG+CAGCACATGAAGCACGTCG ((((((((...((((((((+))))))))...))))))))” here?
The Tm was 53.9 °C.

With “CGACGTGCAGCATGTGCTG+CAGCACATACCGCACGTCG ((((((((.(.((((((((+)))))))).).))))))))” as the substance, how does the Tm read?
Its Tm is 47.3 °C.

With “CGACGTGCTTGATGTGCTG+CAGCACATGAGGCACGTCG ((((((((.(.((((((((+)))))))).).))))))))” as the substance, how does the Tm read?
The Tm was 51.6 °C.

With “CGACGTGCCTAATGTGCTG+CAGCACATGGAGCACGTCG ((((((((...((((((((+))))))))...))))))))” as the substance, how does the Tm read?
Its Tm is 51.9 °C.

For “CGACGTGCTGTATGTGCTG+CAGCACATCCGGCACGTCG ((((((((.(.((((((((+)))))))).).))))))))”, which Tm is on record?
Its Tm is 52.8 °C.

With “CGACGTGCCGGATGTGCTG+CAGCACATCATGCACGTCG ((((((((..(((((((((+)))))))))..))))))))” as the substance, how does the Tm read?
Its Tm is 54.8 °C.

Which Tm does the source give for “CGACGTGCAGCATGTGCTG+CAGCACATGTGGCACGTCG ((((((((..(((((((((+)))))))))..))))))))” here?
The Tm was 55.5 °C.

For “CGACGTGCCAGATGTGCTG+CAGCACATTGCGCACGTCG ((((((((...((((((((+))))))))...))))))))”, which Tm is on record?
Its Tm is 51.2 °C.

With “CGACGTGCTGCATGTGCTG+CAGCACATCCCGCACGTCG ((((((((.(.((((((((+)))))))).).))))))))” as the substance, how does the Tm read?
The Tm was 49.9 °C.

For “CGACGTGCCTCATGTGCTG+CAGCACATGAGGCACGTCG (((((((((((((((((((+)))))))))))))))))))”, which Tm is on record?
The Tm was 65.8 °C.

For “CGACGTGCATTATGTGCTG+CAGCACATGCTGCACGTCG (((((((((..((((((((+))))))))..)))))))))”, which Tm is on record?
The Tm was 49 °C.

Which Tm does the source give for “CGACGTGCGGGATGTGCTG+CAGCACATAACGCACGTCG (((((((((..((((((((+))))))))..)))))))))” here?
The Tm was 59.4 °C.

With “CGACGTGCTCCATGTGCTG+CAGCACATTAGGCACGTCG ((((((((...((((((((+))))))))...))))))))” as the substance, how does the Tm read?
The Tm was 48.4 °C.

Which Tm does the source give for “CGACGTGCGTAATGTGCTG+CAGCACATGACGCACGTCG ((((((((((.((((((((+)))))))).))))))))))” here?
The Tm was 58 °C.

Which Tm does the source give for “CGACGTGCCTTATGTGCTG+CAGCACATTTCGCACGTCG ((((((((...((((((((+))))))))...))))))))” here?
Its Tm is 47.1 °C.

With “CGACGTGCTGTATGTGCTG+CAGCACATGGCGCACGTCG ((((((((...((((((((+))))))))...))))))))” as the substance, how does the Tm read?
The Tm was 48.9 °C.

With “CGACGTGCCTCATGTGCTG+CAGCACATCCGGCACGTCG (((((((((..((((((((+))))))))..)))))))))” as the substance, how does the Tm read?
The Tm was 51.2 °C.

Which Tm does the source give for “CGACGTGCGCGATGTGCTG+CAGCACATGTGGCACGTCG ((((((((...((((((((+))))))))...))))))))” here?
The Tm was 51.7 °C.

Which Tm does the source give for “CGACGTGCCGGATGTGCTG+CAGCACATGTCGCACGTCG ((((((((...((((((((+))))))))...))))))))” here?
The Tm was 49.4 °C.

With “CGACGTGCCTCATGTGCTG+CAGCACATAGAGCACGTCG ((((((((...((((((((+))))))))...))))))))” as the substance, how does the Tm read?
The Tm was 51.6 °C.

With “CGACGTGCTGTATGTGCTG+CAGCACATACAGCACGTCG (((((((((((((((((((+)))))))))))))))))))” as the substance, how does the Tm read?
The Tm was 62.1 °C.

With “CGACGTGCTGTATGTGCTG+CAGCACATCGGGCACGTCG ((((((((...((((((((+))))))))...))))))))” as the substance, how does the Tm read?
Its Tm is 50.6 °C.
